Test results published in publication PMC10021052, “Novel multivalent S100A8 inhibitory peptides attenuate tumor progression and metastasis by inhibiting the TLR4-dependent pathway” (Cancer Gene Therapy, 2023).
“Also recorded” adds a separate entry of the source.

Experiments:
[1] = system: S100A8-mediated cell migration; conditions: ref [8]; cited from earlier work
Description: VEGF is another NFκB-mediated re ...

[2] = target: human TLR4/MD-2 complex (human) (UniProt O00206)
[3] = system: tumor cells and macrophages; conditions: ref [8]; cited from earlier work
Description: S100A8 belongs to the S100s family and is characterized by two calcium-binding EF-hand motifs: a carboxyl-terminal EF-hand (high affinity to calcium), and an N-terminal EF-hand (low affinity to calcium) that are connected by a central hinge. Like most S100 proteins, S100A8 can form a heterodimer with S100A9 or can exist as a homodimer or monomer. Vogl et al. originally reported that S100A8-mediated cytokine induction was mediated via TLR4 [5].

[4] = system: SW480 cells; test: qPCR, S100A8-mediated IL-8 and VEGF mRNA induction in SW480 cells; format: cell-based, human; conditions: Fig. 2E
Procedure: SW480 cells were treated with S100A8 in Dulbecco’s Modified Eagle Medium/HamF12 supplemented with 0.1% bovine serum albumin for cytokine induction. Total RNA was extracted using the RNeasy Mini Plus (Qiagen, Hilden, Germany). Complementary DNA was synthesized using the PrimeScript 1st Strand Synthesis kit (Takara Bio, Japan). Quantitative PCR (qPCR) analysis was performed using the PowerUp^TM SYBR^TM Green mixture (Thermo Fisher Scientific) and the StepOnePlus Real Time PCR System (Thermo Fisher Scientific). Gene expression levels were calculated from Ct values, and the relationship between the Ct value and the logarithm of the copy number of a target gene was confirmed to be on a linear line using the corresponding isolated DNA and its serial dilutions as a standard. Thus, the gene expression levels of IL-8 and VEGF were normalized against that of β-actin in each sample. The following primers were used; β-actin, 5′-[…]-3′ and 5′-[…]-3′; IL-8, 5′-[…]-3′ and 5′-[…]-3′; VEGF, 5′-[…]-3′ and 5′-[…]-3′.
Fig. 2 Identification of S100A8 binding sites to human TLR4/MD-2. […] TLR4/MD-2 recombinant proteins were immobilized to the ELISA plate. After blocking, a full length or deletion mutant of S100A8 was added to the plate. The more detailed methods are described in Materials and Methods. […] B A series of overlapping S100A8 synthetic peptides. The TLR4/MD-2 recombinant proteins were added to each well of peptide immobilized plates. The affinity to TLR4/MD-2 was determined. Data are shown as mean ± SD. C The competitive activity was determined using ELISA. Data are shown as mean ± SD. D The TLR4/MD-2 was mixed with S100A8 with/without the indicated peptides, and immunoprecipitated using an anti-TLR4 antibody. TLR4 or S100A8 was visualized. Similar results were obtained in three independent experiments. […] Total RNAs from SW480 cells with/without treatment of the peptide candidates were extracted and qPCR analysis was performed using relevant primer sets and SYBR green. Relative expression levels were compared. […] TEXT PRINTED IN THE PICTURE: (A) Full length: TLR4/MD-2 binding: + | (A) S100A8-ΔC: TLR4/MD-2 binding: − | (A) S100A8-N: TLR4/MD-2 binding: −
Fig. 4 Improvement of competitive inhibition activity by divalent peptide3A5. A The binding capacity was measured at the indicated concentration using an ELISA-based assay. Similar results were obtained in three independent experiments. B SW480 cells were pretreated with 2.5 µM of divalent peptide3A5, and then stimulated with human S100A8 recombinant protein. After 30 min, cell lysates were subjected to western blotting using the indicated antibody. The divalent peptide#3 or peptide3A5 reduced the expression of S100A8-mediated IL-8 (C) and VEGF (D) induction. Total RNAs from SW480 cells with/without treatment of the peptide candidates were extracted and qPCR analysis was performed using relevant primer sets and SYBR green. Relative expression levels were compared. Peptide #3 suppresses S100A8-mediated IL-8(E) and VEGF (F) secretion in SW480 cells.

[5] = system: p38 and p65 (NF-κB) in SW480 cells; conditions: ref [8]; cited from earlier work
Description: TLR4/MD-2 dimerizes upon ligand binding. To attempt the inhibitory peptide fitted into dimerized forms, we generated a divalent peptide of peptide3A5 using Fmoc-Lys (Fmoc)-OH to form two branches in the peptide chain. […] We then examined the effect of divalent peptide3A5 on TLR4/MD-2 downstream signaling. […] Pretr ...

[6] = system: PD-L1 in macrophages; parameters: method as in PMID 32198140; conditions: ref [29]; cited from earlier work
[7] = system: MDSCs; test: In vivo S100A8 stimulation, MDSC recruitment to lungs; parameters: species or system C57BL/6J mice; conditions: recombinant S100A8 i.v., 4 h; *P < 0.05 vs control
Procedure: Balb nu/nu or C57BL/6J mice were purchased from Clea Japan Inc. (Tokyo, Japan). Mice were used for experiments at 2–3 months of age. […] For in vivo S100A8 stimulation, C57BL/6J mice were intravenously injected with mammalian-derived S100A8. Four hours after the i.v. injection, mice were sacrificed, and minced mouse lungs were digested with collagenase/dispase/DNase solution. Collected cells were incubated with anti-CD11b-PE (BD Bioscience), anti-Ly6G-FITC (BD Bioscience), and anti-Ly6C-APC (BD Bioscience) antibodies, and analyzed by a flow cytometry (Cytomics FC500; Beckman Coulter, Brea, CA, USA). […] The mice were sacrificed after 16 h, and minced mouse lungs were digested with collagenase/dispase/DNase solution. The recruitment of MDSCs or PKH-26 labeled tumor cells in the lungs was determined by flow cytometry (CytoFlex; Beckman Coulter).

Sequence of human TLR4/MD-2 complex (human) (O00206 24-839, chain 1 of 2): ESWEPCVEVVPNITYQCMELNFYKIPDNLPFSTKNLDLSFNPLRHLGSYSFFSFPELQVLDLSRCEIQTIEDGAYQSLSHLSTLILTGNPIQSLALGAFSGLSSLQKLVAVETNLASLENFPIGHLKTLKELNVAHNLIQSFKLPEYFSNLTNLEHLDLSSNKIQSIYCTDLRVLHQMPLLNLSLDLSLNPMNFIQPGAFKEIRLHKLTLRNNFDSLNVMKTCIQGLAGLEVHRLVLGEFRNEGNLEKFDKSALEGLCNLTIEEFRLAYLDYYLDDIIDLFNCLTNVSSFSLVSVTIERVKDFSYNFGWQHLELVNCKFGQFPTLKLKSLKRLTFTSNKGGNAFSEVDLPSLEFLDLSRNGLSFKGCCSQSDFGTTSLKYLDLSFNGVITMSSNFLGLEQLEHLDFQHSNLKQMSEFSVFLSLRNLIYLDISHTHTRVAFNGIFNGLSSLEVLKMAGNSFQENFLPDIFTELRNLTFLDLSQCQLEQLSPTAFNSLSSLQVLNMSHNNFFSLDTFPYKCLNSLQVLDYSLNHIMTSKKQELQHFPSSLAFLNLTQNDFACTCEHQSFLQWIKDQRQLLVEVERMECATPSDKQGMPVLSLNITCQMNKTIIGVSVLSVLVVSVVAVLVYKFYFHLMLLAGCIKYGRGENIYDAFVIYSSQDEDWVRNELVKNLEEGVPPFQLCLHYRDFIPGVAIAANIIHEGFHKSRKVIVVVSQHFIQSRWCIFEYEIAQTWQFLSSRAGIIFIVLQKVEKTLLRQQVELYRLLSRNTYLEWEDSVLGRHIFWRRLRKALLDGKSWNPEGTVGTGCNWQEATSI
Sequence of human TLR4/MD-2 complex (human) (Q9Y6Y9 19-160, chain 2 of 2, further chain): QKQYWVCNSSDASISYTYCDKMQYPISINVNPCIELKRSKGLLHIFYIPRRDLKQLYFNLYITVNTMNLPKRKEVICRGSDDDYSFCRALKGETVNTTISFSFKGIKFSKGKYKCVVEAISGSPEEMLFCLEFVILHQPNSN

B1: human S100A8 recombinant protein, full length (natural protein)
chain: MLTELEKALNSIIDVYHKYSLIKGNFHAVYRDDLKKLLETECPQYIRKKGADVWFKELDINTDGAVNFQEFLILVIKMGVAAHKKSHEESHKE
cell migration induced by S100A8 [1]: induces cell migration in a TLR4-dependent manner
S100A8-induced phosphorylation of p38 in SW480 cells pretreated with 2.5 µM divalent peptide3A5: fold inhibition [2]: 1.3 fold
S100A8-induced phosphorylation of p65 (NF-κB) in SW480 cells pretreated with 2.5 µM divalent peptide3A5: fold inhibition [2]: 1.7 fold
induction of inflammatory cytokines/chemokines by S100A8 [3]: induced inflammatory cytokines/chemokines in a TLR4-dependent manner
IL-8 production induced by S100A8 [4]: induced IL-8 production
phosphorylation of p38 MAP kinase / NF-κB activation by S100A8 [5]: induced phosphorylation of p38 MAP kinase, followed by activation of NF-κB signaling
PD-L1 expression in macrophages [6]: upregulated PD-L1 in macrophages via a TLR4-dependent pathway
recruitment of MDSCs from bone marrow to lungs [7]: increased the recruitment of MDSCs from the bone marrow to the lungs; also recorded: induces pulmonary recruitment of MDSCs from bone marrow
